Experimental data published in the supplement of paper PMC9112550, “Optimization of the antimicrobial peptide Bac7 by deep mutational scanning” (BMC Biology, 2022).

System: Escherichia coli TOP10
Experiment: shrunken log2 fold change of peptide-encoding DNA abundance (4.5 h post-induction vs induction); higher = less antimicrobial activity (less host growth inhibition)
Conditions: time post-induction: 4.5 h; library: site-saturation at positions 5, 18, 19, 20
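Further: peptides expressed intracellularly from a pBAD plasmid library in pooled LB shake-flask culture, induced with 0.3% L-arabinose, DNA abundance read by NGS, three biological replicates, DESeq2 with apeglm shrinkage.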

Sequence | shrunken log2 fold change
RRIRNRPPRLPRPRPRPKMWPRP | 0.279
RRIRNRPPRLPRPRPRPKNAPRP | -0.0561
RRIRNRPPRLPRPRPRPKPDPRP | 0.355
RRIRNRPPRLPRPRPRPKRPPRP | 0.589
RRIRNRPPRLPRPRPRPKSFPRP | -0.00133
RRIRNRPPRLPRPRPRPKSHPRP | -0.253
RRIRNRPPRLPRPRPRPKTCPRP | 0.0411
RRIRNRPPRLPRPRPRPKWAPRP | -0.0431
RRIRNRPPRLPRPRPRPKWCPRP | -0.00686
RRIRNRPPRLPRPRPRPKWVPRP | 0.132
RRIRNRPPRLPRPRPRPKYIPRP | -0.667
RRIRNRPPRLPRPRPRPLDWPRP | -0.0554
RRIRNRPPRLPRPRPRPLENPRP | -0.0075
RRIRNRPPRLPRPRPRPLFRPRP | -0.266
RRIRNRPPRLPRPRPRPLKVPRP | 4.47
RRIRNRPPRLPRPRPRPLLGPRP | 0.232
RRIRNRPPRLPRPRPRPLLYPRP | -0.588
RRIRNRPPRLPRPRPRPLMMPRP | -0.193
RRIRNRPPRLPRPRPRPLNDPRP | -0.0316
RRIRNRPPRLPRPRPRPLSCPRP | -0.238
RRIRNRPPRLPRPRPRPLSDPRP | -0.0613
RRIRNRPPRLPRPRPRPLTIPRP | -0.389
RRIRNRPPRLPRPRPRPLVRPRP | -0.372
RRIRNRPPRLPRPRPRPLWAPRP | -0.0559
RRIRNRPPRLPRPRPRPLWLPRP | -0.181

Sequence | shrunken log2 fold change
RRIRNRPPRLPRPRPRPLYCPRP | -0.793
RRIRNRPPRLPRPRPRPMAEPRP | 0.0284
RRIRNRPPRLPRPRPRPMAPPRP | -0.0631
RRIRNRPPRLPRPRPRPMCAPRP | -0.253
RRIRNRPPRLPRPRPRPMCGPRP | -0.301
RRIRNRPPRLPRPRPRPMCKPRP | -0.175
RRIRNRPPRLPRPRPRPMCMPRP | -0.106
RRIRNRPPRLPRPRPRPMDQPRP | -0.01
RRIRNRPPRLPRPRPRPMEGPRP | -0.00992
RRIRNRPPRLPRPRPRPMFHPRP | -0.678
RRIRNRPPRLPRPRPRPMFKPRP | -0.386
RRIRNRPPRLPRPRPRPMFMPRP | -0.424
RRIRNRPPRLPRPRPRPMFNPRP | -0.868
RRIRNRPPRLPRPRPRPMFWPRP | 0.0282
RRIRNRPPRLPRPRPRPMGTPRP | -0.0967
RRIRNRPPRLPRPRPRPMLDPRP | -0.000365
RRIRNRPPRLPRPRPRPMLKPRP | -0.0393
RRIRNRPPRLPRPRPRPMMCPRP | -0.0344
RRIRNRPPRLPRPRPRPMNAPRP | -0.281
RRIRNRPPRLPRPRPRPMNFPRP | -0.0203
RRIRNRPPRLPRPRPRPMNMPRP | -0.356
RRIRNRPPRLPRPRPRPMNSPRP | -0.148
RRIRNRPPRLPRPRPRPMNTPRP | -0.421
RRIRNRPPRLPRPRPRPMNVPRP | -0.00101
RRIRNRPPRLPRPRPRPMSLPRP | -0.0381

Sequence | shrunken log2 fold change
RRIRNRPPRLPRPRPRPMWFPRP | 0.0647
RRIRNRPPRLPRPRPRPMYKPRP | 0.0573
RRIRNRPPRLPRPRPRPNDDPRP | 0.0813
RRIRNRPPRLPRPRPRPNDRPRP | -0.218
RRIRNRPPRLPRPRPRPNECPRP | -0.124
RRIRNRPPRLPRPRPRPNFPPRP | -0.0305
RRIRNRPPRLPRPRPRPNGRPRP | -0.00776
RRIRNRPPRLPRPRPRPNHAPRP | -0.0192
RRIRNRPPRLPRPRPRPNIKPRP | -0.641
RRIRNRPPRLPRPRPRPNLDPRP | -0.136
RRIRNRPPRLPRPRPRPNLFPRP | -0.225
RRIRNRPPRLPRPRPRPNLPPRP | -0.0407
RRIRNRPPRLPRPRPRPNLTPRP | -0.335
RRIRNRPPRLPRPRPRPNMEPRP | -0.0369
RRIRNRPPRLPRPRPRPNMIPRP | -0.697
RRIRNRPPRLPRPRPRPNMLPRP | -0.772
RRIRNRPPRLPRPRPRPNNTPRP | -0.798
RRIRNRPPRLPRPRPRPNNYPRP | -1.01
RRIRNRPPRLPRPRPRPNPYPRP | -0.151
RRIRNRPPRLPRPRPRPNQSPRP | -0.157
RRIRNRPPRLPRPRPRPNRWPRP | 0.105
RRIRNRPPRLPRPRPRPNSAPRP | 0.026
RRIRNRPPRLPRPRPRPNSGPRP | -0.0638
RRIRNRPPRLPRPRPRPNSKPRP | -0.331
RRIRNRPPRLPRPRPRPNTFPRP | -0.332

Sequence | shrunken log2 fold change
RRIRNRPPRLPRPRPRPNTNPRP | -0.59
RRIRNRPPRLPRPRPRPNVNPRP | -0.795
RRIRNRPPRLPRPRPRPNWYPRP | -0.647
RRIRNRPPRLPRPRPRPPCHPRP | -0.386
RRIRNRPPRLPRPRPRPPCWPRP | 0.231
RRIRNRPPRLPRPRPRPPFLPRP | -0.0418
RRIRNRPPRLPRPRPRPPGPPRP | 0.419
RRIRNRPPRLPRPRPRPPGVPRP | 0.653
RRIRNRPPRLPRPRPRPPHQPRP | 0.0134
RRIRNRPPRLPRPRPRPPKNPRP | 0.196
RRIRNRPPRLPRPRPRPPLCPRP | 0.167
RRIRNRPPRLPRPRPRPPLHPRP | 0.0562
RRIRNRPPRLPRPRPRPPMPPRP | 0.0312
RRIRNRPPRLPRPRPRPPNAPRP | 0.313
RRIRNRPPRLPRPRPRPPQGPRP | 0.192
RRIRNRPPRLPRPRPRPPQPPRP | 0.621
RRIRNRPPRLPRPRPRPPRHPRP | 0.271
RRIRNRPPRLPRPRPRPPSAPRP | 0.726
RRIRNRPPRLPRPRPRPPSDPRP | -0.118
RRIRNRPPRLPRPRPRPPTGPRP | 0.154
RRIRNRPPRLPRPRPRPPVHPRP | -0.148
RRIRNRPPRLPRPRPRPPYAPRP | 0.161
RRIRNRPPRLPRPRPRPPYPPRP | -0.0162
RRIRNRPPRLPRPRPRPQAHPRP | -0.163
RRIRNRPPRLPRPRPRPQCSPRP | -0.148

Sequence | shrunken log2 fold change
RRIRNRPPRLPRPRPRPQDSPRP | -0.238
RRIRNRPPRLPRPRPRPQFEPRP | -0.013
RRIRNRPPRLPRPRPRPQFRPRP | 0.00019
RRIRNRPPRLPRPRPRPQGKPRP | 0.0697
RRIRNRPPRLPRPRPRPQKTPRP | -0.0033
RRIRNRPPRLPRPRPRPQKWPRP | -0.0202
RRIRNRPPRLPRPRPRPQMIPRP | -0.0608
RRIRNRPPRLPRPRPRPQMSPRP | -0.0396
RRIRNRPPRLPRPRPRPQPSPRP | 0.186
RRIRNRPPRLPRPRPRPQQCPRP | -0.0851
RRIRNRPPRLPRPRPRPQSEPRP | -0.0564
RRIRNRPPRLPRPRPRPQSTPRP | -0.548
RRIRNRPPRLPRPRPRPQVAPRP | 0.14
RRIRNRPPRLPRPRPRPQVQPRP | -0.524
RRIRNRPPRLPRPRPRPQVTPRP | -0.134
RRIRNRPPRLPRPRPRPQWMPRP | -0.0995
RRIRNRPPRLPRPRPRPQWQPRP | -0.0605
RRIRNRPPRLPRPRPRPQYAPRP | -0.0234
RRIRNRPPRLPRPRPRPRCDPRP | -0.203
RRIRNRPPRLPRPRPRPRCWPRP | 0.108
RRIRNRPPRLPRPRPRPRDYPRP | -0.0159
RRIRNRPPRLPRPRPRPREEPRP | -0.0547
RRIRNRPPRLPRPRPRPREGPRP | 0.187
RRIRNRPPRLPRPRPRPREMPRP | 0.0274
RRIRNRPPRLPRPRPRPREYPRP | 0.0336

Sequence | shrunken log2 fold change
RRIRNRPPRLPRPRPRPRHWPRP | 0.133
RRIRNRPPRLPRPRPRPRIDPRP | -0.0916
RRIRNRPPRLPRPRPRPRKKPRP | 0.163
RRIRNRPPRLPRPRPRPRLEPRP | 0.317
RRIRNRPPRLPRPRPRPRLGPRP | 0.187
RRIRNRPPRLPRPRPRPRLTPRP | 0.252
RRIRNRPPRLPRPRPRPRMAPRP | 0.424
RRIRNRPPRLPRPRPRPRMLPRP | 0.132
RRIRNRPPRLPRPRPRPRMMPRP | 0.0809
RRIRNRPPRLPRPRPRPRNAPRP | 0.0122
RRIRNRPPRLPRPRPRPRNEPRP | 0.121
RRIRNRPPRLPRPRPRPRNVPRP | -0.3
RRIRNRPPRLPRPRPRPRQQPRP | 0.365
RRIRNRPPRLPRPRPRPRTHPRP | -0.184
RRIRNRPPRLPRPRPRPRVVPRP | 0.078
RRIRNRPPRLPRPRPRPRWHPRP | -0.114
RRIRNRPPRLPRPRPRPRYHPRP | -0.438
RRIRNRPPRLPRPRPRPSAIPRP | -0.354
RRIRNRPPRLPRPRPRPSDFPRP | -0.00477
RRIRNRPPRLPRPRPRPSECPRP | -0.272
RRIRNRPPRLPRPRPRPSEEPRP | 0.0717
RRIRNRPPRLPRPRPRPSHNPRP | -0.643
RRIRNRPPRLPRPRPRPSIRPRP | -0.0225
RRIRNRPPRLPRPRPRPSKQPRP | 0.00527
RRIRNRPPRLPRPRPRPSKTPRP | -0.454
